Source: the RNAGym collection of RNA variant scans (doi:10.1093/nar/gkz1192)

B1: CPEB3 Ribozyme (parent)
chain: UAACAGGGGGCCACAGCAGAAGCGUUCACGUCGCAGCCCCUGUCAGAUUCUGGUGAAUCUGCGAAUUCUGCUGUAUAUCUC

Variants of: B1
Assay: self-cleavage, relative activity (ratio to wild type); higher = more cleavage; in vitro, sequencing
In short: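 Barcoded CPEB3 ribozyme mutants, produced by rounds of error-prone PCR, self-cleaved while being transcribed with T7 RNA polymerase for 5 hours at 37°C and during a subsequent 15 min DNase I step before EDTA was added. Sequencing of template-switched cDNA on Illumina gave cleaved and total reads, and DNA sequencing assigned barcodes to variants. Each variant's relative activity is its cleaved/total read fraction divided by the unmutated ribozyme's fraction, averaged across three batches. A variant needed a minimum of 5 reads.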

Variant	self-cleavage
U51A A56G	0.5
C50A U54C	0.83
C50A U54A	0.88
U49C U66G	0.29
U49C U66A	0.31
U49C U66C	0.25
U51A U58C	0.54
U51A U58A	0.3
U49C U51A	0.49
U49C U51G	0.36
U49C U51C	0.38
C50U U78C	0.97
C50U U78A	1.12
U49A A64G	0.51
U49A A64U	0.25
U48G U66C	0.45
U49C U67G	0.32
U49C U67C	0.23
U49C U67A	0.28
C50A U51A	0.84
C50A U51C	0.93
U49A U78G	0.6
U49A U78C	0.57
C50A	0.88

Variant	self-cleavage
C50G	0.8
C50U	1.01
U51A G52C	1.09
U51A G52U	1.16
U51A G52A	1.21
U49C C50U	0.87
U49C C50A	0.78
U49C C50G	0.82
C50A A57U	0.22
U49A A75G	0.39
U49A A75U	0.64
U49A G53A	0.79
U51A U67C	0.4
U51A U67A	0.59
U51A U67G	0.43
C50G A56U	0.45
U49A G73A	1.28
U49A U51C	0.66
U49A U51A	0.45
U49G U67C	0.31
U51A A75U	1.03
U51A A75G	0.86
U49G U69A	0.36
U49G U69C	0.21

Variant	self-cleavage
U51A U60A	0.64
U51A U60C	0.59
U49G C81U	0.77
U48G U80C	0.6
U51A A65U	0.21
U51A A65G	0.48
U49A G55C	0.62
U49A G55A	0.78
C50G U72C	0.75
C50G U72A	0.58
U49G U78C	0.43
C50G G61A	0.27
U51C A75U	0.98
U51C A75G	1.01
U51C A75C	1.21
U51C A64U	0.42
U51C A64G	0.81
U49C A77U	0.37
U49C A77G	0.45
U48G U60G	0.22
C50U U76A	0.94
C50U U76C	0.98
C50A U74C	0.87
U51A C62A	0.22

Variant	self-cleavage
U51A C62G	0.23
U51A C62U	0.25
U48G A75G	0.3
U51A U76A	1.09
U51A U76C	1.11
U51A U76G	1.09
U49C A75G	0.4
U49C A75U	0.62
U49C A75C	0.55
C50U A75U	1.22
U49C	0.43
U49A	0.71
U49G	0.52
U49C U74A	0.71
U49C U74G	0.59
U49C U74C	0.65
U48G U69A	0.21
U48G U69C	0.34
U48G U51C	0.53
C50U G61A	0.55
U49G G55U	0.88
U49C U60A	0.22
U49C U60C	0.22
U49C U60G	0.13

Variant	self-cleavage
U49C A56U	0.48
U49C A56C	0.42
U49C A56G	1.04
U51A G63U	1.15
U51A G63A	1
U49C A65C	0.14
U49C A65U	0.26
U49C A65G	0.26
U49A A65C	0.13
U49A A65G	0.29
U49A A65U	0.47
C50G A75C	0.54
U49G A64G	0.4
U49C A57G	0.35
U49C A57U	0.33
U51A G73A	1.15
U51C A57G	0.91
U51C A57U	0.44
U51C A57C	0.44
C50G U51C	0.68
U51A C71U	0.73
U51A C79U	1.18
U51A C79G	1.17
U49C C62A	0.17

Variant	self-cleavage
U49C C62U	0.33
U49C C62G	0.46
C50A U60C	0.13
C50A U60A	0.27
U49C G61C	0.33
U49C G61A	0.19
U49C C71G	0.19
U49C C71U	0.23
U49C C71A	0.17
U49A U58A	0.21
U49A U58C	0.33
U51C A77C	0.98
U51C A77G	1.08
U51C A77U	0.95
U48G U72C	0.44
U48G U72A	0.44
U51C C71A	0.53
U49C C59A	0.09
U49C C59U	0.09
U49C G73U	0.77
U49C G73A	0.73
U49C C68U	0.24
U49C C68A	0.15
U49A G61C	0.19

Variant	self-cleavage
C50U G52A	0.99
U51A	1.05
U51C	1.04
U51A U74C	1.21
U51A U74A	1.29
U49G U80C	0.48
U48G A65G	0.23
U49A U69A	0.34
U49A U69C	0.44
U49A U69G	0.61
U49A G70A	0.49
U49A G70U	0.24
U49A C50A	0.5
U49C G53A	0.52
U49C G53C	0.44
U51A G55U	1.08
U51A G53A	1.27
U49G U51C	0.63
U51A G61A	1.01
U51A U72C	1.15
U51A U72G	0.91
U51A U72A	0.69
U49A C79U	1.07
